Data taken from the supplement of paper PMC5998384.

How the values were obtained:
HeLa Kyoto [1] = test: solubility in G1/S (NP-40 vs SDS abundance) (log2 ratio); higher = more soluble; details: cell cycle stage: G1/S
HeLa Kyoto [2] = test: melting temperature (median over replicates), in situ; higher = more thermally stable
HeLa Kyoto [3] = test: solubility change mitosis vs G1/S (difference of NP-40 vs SDS log2 ratios) (log2 ratio difference); higher = more soluble in mitosis
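Wherever melting temperature (median over replicates), in situ is given: HeLa Kyoto cells synchronized by double thymidine or nocodazole block, proteins quantified by TMT10plex mass spectrometry, three independent biological replicates.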
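Wherever solubility change mitosis vs G1/S (difference of NP-40 vs SDS log2 ratios) is given: synchronized HeLa Kyoto cells (double thymidine block for G1/S, nocodazole release for mitosis), protein amounts in NP-40 versus SDS lysates quantified by mass spectrometry, three biological replicates.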
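Wherever solubility in G1/S (NP-40 vs SDS abundance) is given: HeLa Kyoto cells arrested at G1/S by double thymidine block, proteins quantified by TMT10plex mass spectrometry in mild NP-40 versus SDS extracts, three biological replicates.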

Sequence	solubility in G1/S (log2) (HeLa Kyoto [1])	melting temperature (HeLa Kyoto [2]; cell cycle stage: G1/S) [°C]	melting temperature (HeLa Kyoto [2]; cell cycle stage: mitosis) [°C]	solubility change mitosis (log2) (HeLa Kyoto [3])
MATSTGRWLLLRLALFGFLWEASGGLDSGASRDDDLLLPYPRARARLPRDCTRVRAGNREHESWPPPPATPGAGGLAVRTFVSHFRDRAVAGHLTRAVEPLRTFSVLEPGGPGGCAARRRATVEETARAADCRVAQNGGFFRMNSGECLGNVVSDERRVSSSGGLQNAQFGIRRDGTLVTGYLSEEEVLDTENPFVQLLSGVVWLIRNGSIYINESQATECDETQETGSFSKFVNVISARTAIGHDRKGQLVLFHADGQTEQRGINLWEMAEFLLKQDVVNAINLDGGGSATFVLNGTLASYPSDHCQDNMWRCPRQVSTVVCVHEPRCQPPDCHGHGTCVDGHCQCTGHFWRGPGCDELDCGPSNCSQHGLCTETGCRCDAGWTGSNCSEECPLGWHGPGCQRPCKCEHHCPCDPKTGNCSVSRVKQCLQPPEATLRAGELSFFTRTAWLALTLALAFLLLISTAANLSLLLSRAERNRRLHGDYAYHPLQEMNGEPLAAEKEQPGGAHNPFKD [NAGPA]	0.327	54.5	55.4	-0.232
MAVCGLGSRLGLGSRLGLRGCFGAARLLYPRFQSRGPQGVEDGDRPQPSSKTPRIPKIYTKTGDKGFSSTFTGERRPKDDQVFEAVGTTDELSSAIGFALELVTEKGHTFAEELQKIQCTLQDVGSALATPCSSAREAHLKYTTFKAGPILELEQWIDKYTSQLPPLTAFILPSGGKISSALHFCRAVCRRAERRVVPLVQMGETDANVAKFLNRLSDYLFTLARYAAMKEGNQEKIYMKNDPSAESEGL [MMAB]	0.574	51.8	55.8	0.126
MAVLKLTDQPPLVQAIFSGDPEEIRMLIHKTEDVNTLDSEKRTPLHVAAFLGDAEIIELLILSGARVNAKDNMWLTPLHRAVASRSEEAVQVLIKHSADVNARDKNWQTPLHVAAANKAVKCAEVIIPLLSSVNVSDRGGRTALHHAALNGHVEMVNLLLAKGANINAFDKKDRRALHWAAYMGHLDVVALLINHGAEVTCKDKKGYTPLHAAASNGQINVVKHLLNLGVEIDEINVYGNTALHIACYNGQDAVVNELIDYGANVNQPNNNGFTPLHFAAASTHGALCLELLVNNGADVNIQSKDGKSPLHMTAVHGRFTRSQTLIQNGGEIDCVDKDGNTPLHVAARYGHELLINTLITSGADTAKCGIHSMFPLHLAALNAHSDCCRKLLSSGFEIDTPDKFGRTCLHAAAAGGNVECIKLLQSSGADFHKKDKCGRTPLHYAAANCHFHCIETLVTTGANVNETDDWGRTALHYAAASDMDRNKTILGNAHDNSEELERARELKEKEATLCLEFLLQNDANPSIRDKEGYNSIHYAAAYGHRQCLELLLERTNSGFEESDSGATKSPLHLAAYNGHHQALEVLLQSLVDLDIRDEKGRTALDLAAFKGHTECVEALINQGASIFVKDNVTKRTPLHASVINGHTLCLRLLLEIADNPEAVDVKDAKGQTPLMLAVAYGHIDAVSLLLEKEANVDTVDILGCTALHRGIMTGHEECVQMLLEQEVSILCKDSRGRTPLHYAAARGHATWLSELLQMALSEEDCCFKDNQGYTPLHWACYNGNENCIEVLLEQKCFRKFIGNPFTPLHCAIINDHGNCASLLLGAIDSSIVSCRDDKGRTPLHAAAFADHVECLQLLLRHSAPVNAVDNSGKTALMMAAENGQAGAVDILVNSAQADLTVKDKDLNTPLHLACSKGHEKCALLILDKIQDESLINEKNNALQTPLHVAARNGLKVVVEELLAKGACVLAVDENASRSNGPRSTPGTAVQKEE [ANKRD44]	-0.235	51.7	52.2	-0.0872
MDALEGESFALSFSSASDAEFDAVVGYLEDIIMDDEFQLLQRNFMDKYYLEFEDTEENKLIYTPIFNEYISLVEKYIEEQLLQRIPEFNMAAFTTTLQHHKDEVAGDIFDMLLTFTDFLAFKEMFLDYRAEKEGRGLDLSSGLVVTSLCKSSSLPASQNNLRH [ARL2BP]	-0.148	50.9	53	0.0405
MDDSETGFNLKVVLVSFKQCLDEKEEVLLDPYIASWKGLVRFLNSLGTIFSFISKDVVSKLRIMERLRGGPQSEHYRSLQAMVAHELSNRLVDLERRSHHPESGCRTVLRLHRALHWLQLFLEGLRTSPEDARTSALCADSYNASLAAYHPWVVRRAVTVAFCTLPTREVFLEAMNVGPPEQAVQMLGEALPFIQRVYNVSQKLYAEHSLLDLP [CPTP]	-0.0351	49.1	48.4	-0.256
MDFENLFSKPPNPALGKTATDSDERIDDEIDTEVEETQEEKIKLECEQIPKKFRHSAISPKSSLHRKSRSKDYDVYSDNDICSQESEDNFAKELQQYIQAREMANAAQPEESTKKEGVKDTPQAAKQKNKNLKAGHKNGKQKKMKRKWPGPGNKGSNALLRNSGSQEEDGKPKEKQQHLSQAFINQHTVERKGKQICKYFLERKCIKGDQCKFDHDAEIEKKKEMCKFYVQGYCTRGENCLYLHNEYPCKFYHTGTKCYQGEYCKFSHAPLTPETQELLAKVLDTEKKSCK [ZC3H8]	-0.126	55.1	55.1	0.444
MDLPVGPGAAGPSNVPAFLTKLWTLVSDPDTDALICWSPSGNSFHVFDQGQFAKEVLPKYFKHNNMASFVRQLNMYGFRKVVHIEQGGLVKPERDDTEFQHPCFLRGQEQLLENIKRKVTSVSTLKSEDIKIRQDSVTKLLTDVQLMKGKQECMDSKLLAMKHENEALWREVASLRQKHAQQQKVVNKLIQFLISLVQSNRILGVKRKIPLMLNDSGSAHSMPKYSRQFSLEHVHGSGPYSAPSPAYSSSSLYAPDAVASSGPIISDITELAPASPMASPGGSIDERPLSSSPLVRVKEEPPSPPQSPRVEEASPGRPSSVDTLLSPTALIDSILRESEPAPASVTALTDARGHTDTEGRPPSPPPTSTPEKCLSVACLDKNELSDHLDAMDSNLDNLQTMLSSHGFSVDTSALLDLFSPSVTVPDMSLPDLDSSLASIQELLSPQEPPRPPEAENSSPDSGKQLVHYTAQPLFLLDPGSVDTGSNDLPVLFELGEGSYFSEGDGFAEDPTISLLTGSEPPKAKDPTVS [HSF1]	0.523	47.9	49.8	-0.148
MDSELKEEIPVHEEFILCGGAETQVLKCGPWTDLFHDQSVKRPKLLIFIIPGNPGFSAFYVPFAKALYSLTNRRFPVWTISHAGHALAPKDKKILTTSEDSNAQEIKDIYGLNGQIEHKLAFLRTHVPKDMKLVLIGHSIGSYFTLQMLKRVPELPVIRAFLLFPTIERMSESPNGRIATPLLCWFRYVLYVTGYLLLKPCPETIKSLLIRRGLQVMNLENEFSPLNILEPFCLANAAYLGGQEMMEVVKRDDETIKEHLCKLTFYYGTIDPWCPKEYYEDIKKDFPEGDIRLCEKNIPHAFITHFNQEMADMIADSLKDDLSKM [LDAH]	0.0802	52.3		-0.331
MDTEPNPGTSSVSTTTSSTTTTTITTSSSRMQQPQISVYSGSDRHAVQVIQQALHRPPSSAAQYLQQMYAAQQQHLMLHTAALQQQHLSSSQLQSLAAVQASLSSGRPSTSPTGSVTQQSSMSQTSINLSTSPTPAQLISRSQASSSTSGSITQQTMLLGSTSPTLTASQAQMYLRAQMLIFTPATTVAAVQSDIPVVSSSSSSSCQSAATQVQNLTLRSQKLGVLSSSQNGPPKSTSQTQSLTICHNKTTVTSSKISQRDPSPESNKKGESPSLESRSTAVTRTSSIHQLIAPASYSPIQPHSLIKHQQIPLHSPPSKVSHHQLILQQQQQQIQPITLQNSTQDPPPSQHCIPLQNHGLPPAPSNAQSQHCSPIQSHPSPLTVSPNQSQSAQQSVVVSPPPPHSPSQSPTIIIHPQALIQPHPLVSSALQPGPNLQQSTANQVQATAQLNLPSHLPLPASPVVHIGPVQQSALVSPGQQIVSPSHQQYSSLQSSPIPIASPPQMSTSPPAQIPPLPLQSMQSLQVQPEILSQGQVLVQNALVSEEELPAAEALVQLPFQTLPPPQTVAVNLQVQPPAPVDPPVVYQVEDVCEEEMPEESDECVRMDRTPPPPTLSPAAITVGRGEDLTSEHPLLEQVELPAVASVSASVIKSPSDPSHVSVPPPPLLLPAATTRSNSTSMHSSIPSIENKPPQAIVKPQILTHVIEGFVIQEGLEPFPVSRSSLLIEQPVKKRPLLDNQVINSVCVQPELQNNTKHADNSSDTEMEDMIAEETLEEMDSELLKCEFCGKMGYANEFLRSKRFCTMSCAKRYNVSCSKKFALSRWNRKPDNQSLGHRGRRPSGPDGAAREHILRQLPITYPSAEEDLASHEDSVPSAMTTRLRRQSERERERELRDVRIRKMPENSDLLPVAQTEPSIWTVDDVWAFIHSLPGCQDIADEFRAQEIDGQALLLLKEDHLMSAMNIKLGPALKICARINSLKES [PHC3]	-0.44	46.5	50.2	0.439
MEEEGVKEAGEKPRGAQMVDKAGWIKKSSGGLLGFWKDRYLLLCQAQLLVYENEDDQKCVETVELGSYEKCQDLRALLKRKHRFILLRSPGNKVSDIKFQAPTGEEKESWIKALNEGINRGKNKAFDEVKVDKSCALEHVTRDRVRGGQRRRPPTRVHLKEVASAASDGLLRLDLDVPDSGPPVFAPSNHVSEAQPRETPRPLMPPTKPFLAPETTSPGDRVETPVGERAPTPVSASSEVSPESQEDSETPAEEDSGSEQPPNSVLPDKLKVSWENPSPQEAPAAESAEPSQAPCSETSEAAPREGGKPPTPPPKILSEKLKASMGEMQASGPPAPGTVQVSVNGMDDSPEPAKPSQAEGTPGTPPKDATTSTALPPWDLPPQFHPRCSSLGDLLGEGPRHPLQPRERLYRAQLEVKVASEQTEKLLNKVLGSEPAPVSAETLLSQAVEQLRQATQVLQEMRDLGELSQEAPGLREKRKELVTLYRRSAP [PLEKHO2]	0.188	53.2	51.9	0.0528
MEELTIWEQHTATLSKDPRRGFGIAISGGRDRPGGSMVVSDVVPGGPAEGRLQTGDHIVMVNGVSMENATSAFAIQILKTCTKMANITVKRPRRIHLPATKASPSSPGRQDSDEDDGPQRVEEVDQGRGYDGDSSSGSGRSWDERSRRPRPGRRGRAGSHGRRSPGGGSEANGLALVSGFKRLPRQDVQMKPVKSVLVKRRDSEEFGVKLGSQIFIKHITDSGLAARHRGLQEGDLILQINGVSSQNLSLNDTRRLIEKSEGKLSLLVLRDRGQFLVNIPPAVSDSDSSPLEDISDLASELSQAPPSHIPPPPRHAQRSPEASQTDSPVESPRLRRESSVDSRTISEPDEQRSELPRESSYDIYRVPSSQSMEDRGYSPDTRVVRFLKGKSIGLRLAGGNDVGIFVSGVQAGSPADGQGIQEGDQILQVNDVPFQNLTREEAVQFLLGLPPGEEMELVTQRKQDIFWKMVQSRVGDSFYIRTHFELEPSPPSGLGFTRGDVFHVLDTLHPGPGQSHARGGHWLAVRMGRDLREQERGIIPNQSRAEQLASLEAAQRAVGVGPGSSAGSNARAEFWRLRGLRRGAKKTTQRSREDLSALTRQGRYPPYERVVLREASFKRPVVILGPVADIAMQKLTAEMPDQFEIAETVSRTDSPSKIIKLDTVRVIAEKDKHALLDVTPSAIERLNYVQYYPIVVFFIPESRPALKALRQWLAPASRRSTRRLYAQAQKLRKHSSHLFTATIPLNGTSDTWYQELKAIIREQQTRPIWTAEDQLDGSLEDNLDLPHHGLADSSADLSCDSRVNSDYETDGEGGAYTDGEGYTDGEGGPYTDVDDEPPAPALARSSEPVQADESQSPRDRGRISAHQGAQVDSRHPQGQWRQDSMRTYEREALKKKFMRVHDAESSDEDGYDWGPATDL [TJP3]	-0.105	50.3	50.8	0.0692
MEGGGGIPLETLKEESQSRHVLPASFEVNSLQKSNWGFLLTGLVGGTLVAVYAVATPFVTPALRKVCLPFVPATTKQIENVVKMLRCRRGSLVDIGSGDGRIVIAAAKKGFTAVGYELNPWLVWYSRYRAWREGVHGSAKFYISDLWKVTFSQYSNVVIFGVPQMMLQLEKKLERELEDDARVIACRFPFPHWTPDHVTGEGIDTVWAYDASTFRGREKRPCTSMHFQLPIQA [FAM173B]	-0.208	54.7		-0.0503
